Source: paper PMC5614712 (Biochemistry and Biophysics Reports, 2017)

Biological target: the molecule itself
Experiment: crystal structure

B1: Y93H ttCK (uridine-cytidine kinase TTHA0578 of Thermus thermophilus HB8, Tyr93 replaced by His) (enzyme)
chain: MSAPKPFVIGIAGGTASGKTTLAQALARTLGERVALLPMDHYYKDLGHLPLEERLRVNYDHPDAFDLALYLEHAQALLRGLPVEMPVYDFRAHTRSPRRTPVRPAPVVILEGILVLYPKELRDLMDLKVFVDADADERFIRRLKRDVLERGRSLEGVVAQYLEQVKPMHLHFVEPTKRYADVIVPRGGQNPVALEMLAAKALARLARMGAA
stoichiometry N: 4
